Residue numbers refer to the chain shown, from its start.
Experiments:
[1] = target: T1, CD200R1 on Jurkat-CD200R1 cells (Homo sapiens, UniProt Q8TD46); experiment: Cell binding assay (flow cytometry), Jurkat-CD200R1 cells; format: cell-based
T1 construct: host or cells: Jurkat
T1 sequence (Q8TD46 25-348): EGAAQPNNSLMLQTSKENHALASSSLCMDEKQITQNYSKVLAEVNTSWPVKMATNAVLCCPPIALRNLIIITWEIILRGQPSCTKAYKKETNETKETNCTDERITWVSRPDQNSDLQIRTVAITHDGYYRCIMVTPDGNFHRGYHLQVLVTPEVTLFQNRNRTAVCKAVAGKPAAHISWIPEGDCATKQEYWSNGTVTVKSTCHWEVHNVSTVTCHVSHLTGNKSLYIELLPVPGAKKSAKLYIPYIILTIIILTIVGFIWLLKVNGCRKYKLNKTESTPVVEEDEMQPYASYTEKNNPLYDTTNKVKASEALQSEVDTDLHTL
Description: The binding ability of the antibodies identified using unique multifaceted antibody discovery technology was identified in HH (CRL-2105) cells, which endogenously express CD200R1, and Jurkat-CD200R1 cells (Source: DiscoverX), which were generated by intranuclear injection of CD200R1 cDNA.
HH and Jurkat-CD200R1 cells were maintained in RPMI 1640 medium supplemented with 10% heat-inactivated FBS and 1% Penicillin/Streptomycin (P/S). The cells were washed by centrifugation at 130 g for 5 minutes. The cells were seeded onto 96-well round-bottom plates (SPL, #34296) at a density of 1×10^5 cells/well in Flow cytometry staining buffer (Invitrogen, #00-4222-26) or FACS buffer. The cells were treated with all 16 substances and the positive control LY3454738 (US 2020/0087395, I-4P, at Eli Lilly) a concentration of 500 nM in the IgG1 form. After incubation for 1 hour at 4° C., the cells were treated with Alexa-647 Goat anti-human IgG (H+L) cross-adsorbed secondary antibody (Invitrogen, #A21445) and incubated at 4° C. for an additional 30 minutes. […]
Cell-binding ability was determined in the same manner as in Example 12. For the six active substances primarily selected in Example 12, the isotype was changed to IgG4 or the LALAPG gene was mutated, and binding activity was determined in the two cell lines mentioned above.
Binding ability was determined in HH, an endogenous T cell line with high CD200R1 expression, and two additional overexpressing cell lines: U937-CD200R overexpressing cells, generated by intranuclear injection of human CD200R1 CDNA into the monocytic cell line U937 (CRL-1593.2) (Source: UMC Utrecht, the Netherlands) and Jurkat-CD200R overexpressing cells, were also cells engineered using a similar method.
All cell lines were maintained in RPMI 1640 medium supplemented with 10% heat-inactivated FBS and 1% penicillin/streptomycin (P/S) and cell binding was determined in the same manner as in Example 12. […]
Specific binding ability was determined using P001009 WT and antibody-optimized mutants, P001009v1, P001009v2, P001009v3, and P001009v4. […]

[2] = test system: TNF-α in U937-CD200R1 cells; experiment: TNF-α suppression in LPS-treated U937-CD200R1 cells (AlphaLISA); format: cell-based, human; details: for TNF-α: LPS-treated U937-CD200R1 cells, 24 h
Description: To determine the binding ability of the candidates to U937-CD200R1-overexpressing cell lines and verify the efficacy thereof, the anti-inflammatory effect of anti-CD200R1 antibodies was analyzed. First, 5×10^6 U937-CD200R1 cells were added to 12 ml of medium, treated with 30 ng/ml of Phorbol 12-myristate 13-acetate (Sigma Aldrich, #P1585), and reacted at 37° C. in 5% CO2 for 24 hours. After reaction, the medium was replaced with RPMI 1640 medium containing only 10% heat-inactivated FBS, and 5×10^6 cells were maintained at 37° C. in 5% CO2 for 24 hours.
Cells were seeded on duplicate onto 96-well round-bottom plates (SPL, #34296) at 1×10^5 cells/50 μl/well. P001009 WT, P001009v1, and the previously published CD200R antibody LY3454738 (US 2020/0087395, I-4P, Eli Lilly) as a positive control were used in this experiment. The drug was serially diluted 10-fold from a maximum concentration of 100 nM and treated to the cells at concentrations of 10 nM, 1 nM, […], respectively. Additional cells were treated with 100 nM of hIgG4 kappa isotype control (Crownvivo, #C0004) as a negative control. Untreated cells were seeded in the same amount of medium (RPMI 1640 containing 10% heat-inactivated FBS) and incubated at 37° C., 5% CO2 for 1 hour. To induce an inflammatory response in drug-treated cells, each well was treated with 10 μl of lipopolysaccharide from Salmonella typhosa (Sigma Aldrich, #L7895) at a concentration of 1 μg/ml. One well was left untreated to assess the induction of inflammatory cytokines. After thorough mixing, the cells were incubated at 37° C. and 5% CO2 for 24 hours.
After centrifugation at 1100 g for 2 minutes, images of the pellets before and after LPS treatment were captured using a microscope (Carl Zeiss, AXIO VERT.A1). After LPS treatment, the pellet appeared as scattered debris (FIG. 18B) rather than uniform spheroids (FIG. 18A). This was observed under a microscope. The supernatant was collected and analyzed for inflammatory cytokines such as TNF-α and IL-6 using an EnVision® multimode plate reader (PerkinElmer). A bead-based cytokine assay was performed using the AlphaLISA immunoassay on the EnVision® instrument. TNF-α(human) AlphaLISA Detection Kit, 500 assay points (PerkinElmer, #AL208C) was used for TNF-α, and the IL-6 (human) AlphaLISA Detection Kit, 500 assay points (PerkinElmer, #AL223C) was used for IL-6. Cytokine levels were determined depending on the concentration of each antibody.

B1: P001009: phage display anti-CD200R1 clone; VH SEQ ID NO: 79, VL SEQ ID NO: 94 (antibody, V domains shown)
VH: EVQLLESGGGLVQPGGSLRLSCAASGFTFSSYDMSWVRQAPGKGLEWVSWISHGGGSIYYADSVKGRFTISRDNSKNTLYLQMNSLRAEDTAVYYCARDAPAYSAPLFDYWGQGTLVTVSS
VL: QSVLTQPPSASGTPGQRVTISCSGSSSNIGNNAVNWYQQLPGTAPKLLIYYDSNRPSGVPDRFSGSKSGTSASLAISGLRSEDEADYYCAAWDDSLSGYVFGGGTKLTVL
[1]; Jurkat-CD200R1 cells
  cell binding ability, IgG4 or LALAPG mutants: highest efficacy
[2]; log [Ab] (M) −7
  TNF-α: 619.6 ± 12.3 pg/mL
[2]; log [Ab] (M) −8
  TNF-α: 1259.1 ± 29.9 pg/mL
[2]; log [Ab] (M) −9
  TNF-α: 2035.8 ± 108.9 pg/mL
[2]; log [Ab] (M) −10
  TNF-α: 4148.8 ± 208.7 pg/mL
[2]; log [Ab] (M) −11
  TNF-α: 5038.4 ± 7.7 pg/mL
[2]; log [Ab] (M) −12
  TNF-α: 5128.6 ± 667.6 pg/mL

B2: P001009v1: P001009 variant, LC S52 and LC S94 substituted with K and R; VH SEQ ID NO: 79 (antibody, V domains shown)
VH: B1 VH
VL: B1 VL with S53K, S95R
[1]; serial dilution from 100 nM
  binding ability to Jurkat-CD200R1: highest binding ability
[2]; log [Ab] (M) −7
  TNF-α: 146.7 ± 23.8 pg/mL
[2]; log [Ab] (M) −8
  TNF-α: 609.5 ± 25.6 pg/mL
[2]; log [Ab] (M) −9
  TNF-α: 1039.8 ± 54.7 pg/mL
[2]; log [Ab] (M) −10
  TNF-α: 3352.5 ± 189.8 pg/mL
[2]; log [Ab] (M) −11
  TNF-α: 4753.2 ± 96.1 pg/mL
[2]; log [Ab] (M) −12
  TNF-α: 4082.1 ± 964.6 pg/mL
[2]; low nanomolar (nM) drug concentrations
  TNF-α level: maintained low inflammatory cytokine levels
